How the values were obtained:
[1] = target: T1, sEGFR-MMB (Homo sapiens, UniProt P00533); experiment: P190-MMB constructs, solid phase assays (BIAcore and ELISA) on immobilized sEGFR-MMB; type: binding
T1 construct: made in house; host or cells: HEK 293E
Excerpt: In contrast, 190-MMB as the 4316 construct, binds EGFR and the presence of excess EGF promotes its binding.

[2] = tested on: A431 cells; experiment: FACS of P190-MMB constructs or cetuximab on A431 cells; type: cell-based, human; conditions: excess EGF
[3] = target: T2, EGFR (Homo sapiens, UniProt P00533); experiment: FACE (Fast Activated Cell-based ELISA) of EGFR phosphorylation
T2 construct: endogenous in cells

B1: 4316: P190-MMB construct with the longest linker, Flex GGGGS, n 4, SEQ ID NO: 81 (protein)
chain: GGDPCTWEVWGRECLQGGGGSGGGGSGGGGSGGGGSCPPCPAPEAAGGPSVFLFPPKPKDTLMISRTPEVTCVVVDVSQEDPEVQFNWYVDGVEVHNAKTKPREEQFNSTYRVVSVLTVLHQDWLNGKEYKCKVSNKGLPSSIEKTISKAKGQPREPQVYTLPPSQEEMTKNQVSLTCLVKGFYPSDIAVEWESNGQPENNYKTTPPVLDSDGSFFLYSRLTVDKSRWQEGNVFSCSVMHEALHNHYTQKSLSLSLGK
[1]; BIAcore, no dissociation constant obtained
  on-rate: much more pronounced on-rate than the other constructs
[1]; comparison of linker lengths
  binding in solid phase assays and cell-based FACS: best binder
[2]
  effect of EGF on binding to A431: enhanced binding
[3]
  interference with EGF activation of EGFR: nor interfere with EGF activation of EGFR
[3]; absence of EGF
  EGFR phosphorylation (receptor activation): did not induce EGFR phosphorylation

Reference: patent US8278415B2, “Dimeric high affinity EGFR constructs and uses thereof” (Centocor, Inc., priority 2006, dated 2012)
